The target of test [1] is SARS-CoV-2 (2019-nCoV) Spike Protein (S1 Subunit, Fc Tag) (Sino 40591-V02H) (SARS-CoV-2, UniProt P0DTC2 16-685). As to the kind of experiment: Luminex bead binding, supernatant.
For test [2], the target named is SARS-CoV-2 (2019-nCoV) Spike Protein (S1 Subunit, His Tag) (Sino 40591-V08H) (SARS-CoV-2, UniProt P0DTC2 16-685). As to the kind of experiment: Luminex bead binding, supernatant.
The target of test [3] is SARS-CoV-2 Spike Protein (S1 Subunit, Fc Tag) (Sino 40591-V02H) (SARS-CoV-2, UniProt P0DTC2 16-685). As to the kind of experiment: Luminex, supernatant.
In test [4] the target is SARS-CoV-2 Spike Protein (S1 Subunit, His Tag) (Sino 40591-V08H) (SARS-CoV-2, UniProt P0DTC2 16-685). As to the kind of experiment: Luminex, supernatant.

B1: mAb11006 (antibody, V domains shown)
VH: EVQLVESGGGLVQPGGSLRLSCAASGFIVSRNYMSWVRQAPGKGLEWVSVIYSGGSTFYADSVKGRFTISRHNSKNTLYLQMNSLKAEDTAVYYCARELRGYFDYWGQGTLVTVSS
VL: DIQLTQSPSFLSASVGDRVTITCWASQGISSYLAWYQQKPGKAPKLLIYAASTLQSGVPSRFSGSGSGTEFTLTISSLQPEDFATYYCQLLNSYPYTFGQGTKLEIK
For B1, the “Binding signal (MFI)” value in test [1] came out at 2050 MFI.

B2: mAb11008 (antibody, V domains shown)
VH: EVQLVESGGGLVQPGGSLRLSCAASGFTVSSNYMTWVRQAPGKGLEWVSVIYSGGSTFYADSVKGRFTISRHNSENTLYLQMNSLRAEDTAVYYCARDLAAAGTDYWGQGALVTVSS
VL: DIQLTQSPSFLSASVGDRVTITCWASQGISSYLAWYQQKPGKAPKLLIYAASTLQSGVPSRFSGSGSGTEFTLTISSLQPDDFATYYCQHLNSYLYTFGQGTKLEIK
Turning to B2, the “Binding signal (MFI)” value in test [1] came out at 6880 MFI; in test [2], 1420 MFI.

B3: mAb10966 (antibody, V domains shown)
VH: EVQLVESGGGLVQPGGSLRLSCAASGLTVSSNYMSWVRQAPGKGLEWVSVIYSGGSTFYADSVKGRFTISRDNSKNTLYLQMNSLRPEDTAVYYCAREGRIAATGYGMDVWGQGTTVTVSS
VL: not shown
With B3, the MFI is 16400 MFI in test [3] and 23300 MFI in test [4].

B4: mAb10998 (antibody, V domains shown)
VH: EVQLVESGGGLVHPGGSLRLSCAASGLTVSSNYMSWVRQAPGKGLEWVSVIYSGGSTYYADSVKGRFTISRHNSKNTLFLQMNSLRAEDTAVYYCARDRPITGTTLDVWGQGTTVTVSS
VL: DIQMTQSPSSLFASVGDRVTITCRASQSISSYLNWYQQKPGKAPKLLIYAASSLQSGVPSRFSGSGSGTDFTLTISSLQPEDFAFYYCQQTYSTPPITFGQGTRLEIK
Take B4: the “Binding signal (MFI)” value in test [1] is 724 MFI; in test [2] it was 717 MFI.

B5: mAb10982 (antibody, V domains shown)
VH: EVQLVESGGGLVQPGGSLRLSCAASGLTVSSNYMSWVRQAPGKGLEWVSVIYSGGTTYYADSVKGRFTISRHNSKNTLSLQMNSLRAEDTAVYYCARGEGANYYGMDVWGQGTTVTVSS
VL: QSVLTQPPSVSGAPGQRVTISCTGSSSNIGTGYDVHWYQQLPGTAPKLLIYGNSNRPSGVPDRFSGSKSGTSASLAITGLQAEDEADYYCQSYDSSLSGYVVFGGGTKLTVLG
As for B5, the MFI is 10800 MFI in test [3] and 14000 MFI in test [4].

B6: mAb10986 (antibody, V domains shown)
VH: EVQLVESGGGLVQPGGSLRLSCAASEFTVSSNYMSWVRQAPGKGLEWVSVIYSGGSTFYADSVKGRFTISRDNSKNTLYLQMNSLRAEDTAVYYCARALPYGDLHFDYWGQGTLVTVSS
VL: QSVLTQPPSVSGAPGQRVTISCTGSSSNIGTGYDVHWYQQLPGTAPKLLIYGNTNRPSGVPDRFSGSKSGTSASLAITGLQAEDEADYYCQSYDSSLSDSYVFGTGTKVTVLG
As to B6, the MFI in test [3] was 16000 MFI; in test [4] it was 19100 MFI.

B7: mAb10989 (antibody, V domains shown)
VH: QVQLVQSGAEVKKPGASVKVSCKASGYIFTGYYMHWVRQAPGQGLEWMGWINPNSGGANYAQKFQGRVTLTRDTSITTVYMELSRLRFDDTAVYYCARGSRYDWNQNNWFDPWGQGTLVTVSS
VL: QSALTQPASVSGSPGQSITISCTGTSSDVGTYNYVSWYQQHPGKAPKLMIFDVSNRPSGVSDRFSGSKSGNTASLTISGLQAEDEADYYCSSFTTSSTVVFGGGTKLTVLG
Regarding B7, the MFI in test [3] is 12300 MFI; in test [4], 14200 MFI.

B8: mAb10937 (antibody, V domains shown)
VH: QITLKESGPTLVKPTQTLTLTCTFSGFSLSTNVVGVGWIRQPPGKALEWLALIYWNDDKRYSPSLKSRLTITKDTSKNQVVLTMTNMDPVDTATYYCAHGPTGDYFDYWGQGTLVTVSS
VL: not shown
For B8, the MFI in test [3] turned out to be 19600 MFI; in test [4], 26400 MFI.

B9: mAb10921 (antibody, V domains shown)
VH: EVQLVESGGGLVQPGGSLRLSCAASGITVSSNYMSWVRQAPGKGLEWVSVIYSGGSTFYADSVKGRFTISRHNSKNTLYLQMNSLRAEDTAVYYCARERNFDAFDIWGQGTMVTVSS
VL: DIQMTQSPSSVSASVGDRVTITCRASQGISSWLAWYQQKPGKAPKLLIYAASSLQSGVPSRFSGSGSGTDFTLTISSLQPEDFATYYCQQANSFPLFTFGPGTKVDIKR
B9: the results for the MFI in test [3] and in test [4] were 8960 MFI and 12200 MFI, respectively.

B10: mAb10957 (antibody, V domains shown)
VH: EVQLVESGGGLVQPGGSLRLSCAASGVTVSSNYMSWVRQAPGKGLEWVSVIYSGGSTFYADSVKGRFTISRDNSKNTLFLQMNSLRIEDTAVYYCARDLGPYGMDVWGQGTTVTVSS
VL: DIQLTQSPSFLSASVGDRVTITCRASQGISSYLAWYQQKPGKAPKLLIYAASTLQSGVPSRFSGSGSGTQFILTISSLQPEDFATYYCQQLNSYPGFTFGPGTKVDIKR
In the case of B10, the MFI is 8450 MFI in test [3] and 12000 MFI in test [4].

B11: mAb11004 (antibody, V domains shown)
VH: QVQLVESGGGVVQPGRSLRLSCVASGFTFSIYGMDWVRQAPGKGLEWVAVISYDGSNKYYADSVKGRFTISRDNSKNTLYLQMNSLRPEDTAVYYCAKDREAAADAFDIWGQGTMVTVSS
VL: DIQMTQSPSSVSASVGDRVTITCRASQGISSWLAWYQQKPGKAPKLLIYAASSLHSGVPSRFSGSGSGTDFTLTISSLQPEDFATYYCQQANSFRLTFGGGTKVEIK
As to B11, the “Binding signal (MFI)” value turned out to be 4480 MFI in test [1] and 9530 MFI in test [2].

B12: mAb10971 (antibody, V domains shown)
VH: EVQLVESGGGLIQPGGSLRLSCAASGVTVSSNYMSWVRQAPGKGLEWVSVIYSGGSTFYSDSVKGRFSISRDNSKNTLYLQMNSLRAEDTAVYYCARDLYYYGMDVWGQGTTVTVSS
VL: DIQLTQSPSFLSASVGDRVTITCRASQGISTYLAWYQQKPGKAPKLLIYAASTLQSGVPSRFSGSGSGTEFTLTISSLQPEDFATYYCQQLDSYPGLTFGGGTKVEIKR
On to B12, for which the MFI stood at 17000 MFI in test [3] and 21600 MFI in test [4].

B13: mAb10935 (antibody, V domains shown)
VH: EVQLVESGGGLVQPGGSLRLSCAASGFTVSSNYMSWVRQAPGKGLEWVSLIYSGGSTYYADSVKGRFTISRHNSKNTLYLQMNSLRSEDTAVYYCARVPLGDYYYGMDVWGQGTTVTVSS
VL: DIQMTQSPSSLSASVGDRVTITCQASQDINKYLNWYQQKPGKAPKLLIYDASNLETGVPSRFSGSGSGTDFTFTISSLQPEDIATYYCQQSDNLPLTFGGGTKVEIKR
With B13, the MFI in test [3] worked out at 20000 MFI; in test [4], 25600 MFI.

B14: mAb10967 (antibody, V domains shown)
VH: EVQLVESGGGLVQPGGSLRLSCAASGFTVSSNYMSWVRQAPGKGLEWVSVIYPGGSTFYADSVKGRFTISRDNSKNTLYLQMNSLRAEDTAVYYCARDQRDFAWGQGTLVTVSS
VL: DIQMTQSPSSLSASVGDRVTITCQASQDISNYLNWYQQKPGKAPKLLIYDASNLETGVPSRFSGSGSGTDFTFTISGLQPEDIATYYCQQYDNLPPTFGQGTRLEIKR
On to B14, for which the figures for the MFI in test [3] and in test [4] were 15800 MFI and 21900 MFI, respectively.

B15: mAb10954 (antibody, V domains shown)
VH: EVQLVESGGGLVQPGGSLRLSCAASGITVSSNYMSWVRQAPGKGLEWVSLIYSGGSTYYADSVKGRFTISRDNSKNTLYLQMNSLRVEDTAVYYCARDHGMAAAGYNYWGQGTLVTVSS
VL: DIQMTQSPSSLSASVGDRVTITCQASQDINKYLNWYQQKPGKAPKLLIYDASNLETGVPSRFSGSGSGTDFTFTINSLQPEDFATYFCQQYDNLPPAFGQGTKVEIKR
For B15, the MFI in test [3] amounted to 16600 MFI; in test [4], 21300 MFI.

B16: mAb10930 (antibody, V domains shown)
VH: EVQLVESGGGLVQPGRSLRLSCAASGFTFDDYAMYWVRQAPGKGLEWVSGISWNSGSIGYADSVKGRFTISRDNAKNSLYLQMNSLRAADTALYYCAKDKDWNSRGYYYYGMDVWGQGTTVTVSS
VL: not shown
On to B16, for which the MFI in test [3] worked out at 16500 MFI; in test [4], 21200 MFI.

B17: mAb10964 (antibody, V domains shown)
VH: QVQLQESGPGLVKPSETLSLTCTVSGGSINNYYWIWIRQPPGKGLEWIGYIYHSGSTNYNPSLKSRVTISVDTSKNQFSLKVSSVTAADTAVYYCANMVRGVYEDDYWGQGTLVTVSS
VL: DIQMTQSPSSLSASVGDRVTITCRASQSISNYLNWYQQKPGKAPKLLIFAASSLRSGVPSRFSGSGSGTDFTLTISSLHPEDFATYYCQQNYNTPLTFGPGTKVDIKR
On to B17, for which the MFI in test [3] was determined as 18600 MFI; in test [4] it was 24200 MFI.

B18: mAb10939 (antibody, V domains shown)
VH: EVQLVESGGGLVQPGGSLRLSCAASGLTVSSNYMNWVRQVPGKGLEWVSVIYSGGSKFYVDSVKGRFTISRHNSKNTLYLQMNSLRPEDTAVYYCTRDAQYYGMDVWGQGTTVTVSS
VL: DIQMTQSPSSLSASVGDRVTITCRASQSISTYLHWYQQKPGEAPKLLIYAASSLQSGVPSRFSGSGSGTDFTLTISSLQPEDFATYYCQQSYSTPPEIFGQGTKLEIKR
For B18, the MFI amounted to 18200 MFI in test [3] and 23900 MFI in test [4].

B19: mAb10956 (antibody, V domains shown)
VH: EVQLVESGGGLVQPGGSLRLSCAASGLTVSSNYMSWVRQAPGKGLEWVSVIYSGGSTFYADSVKGRFTISRDNSKNTLYLQMNSLRAEDTAVYYCARDLIKYGMDVWGQGTTVTVSS
VL: not shown
In the case of B19, the MFI in test [3] worked out at 15000 MFI; in test [4], 20000 MFI.
